Assay results from US20080241126A1 (XOMA TECHNOLOGY, published 2008).

T1: Ep-CAM on the surface of HT-29 human colorectal carcinoma cells (human, UniProt P16422 24-314)
T1 construct: The gene was obtained from HT-29 mRNA; also called epithelial cell adhesion molecule; Ep-CAM expressing HT-29 cells
T1 sequence: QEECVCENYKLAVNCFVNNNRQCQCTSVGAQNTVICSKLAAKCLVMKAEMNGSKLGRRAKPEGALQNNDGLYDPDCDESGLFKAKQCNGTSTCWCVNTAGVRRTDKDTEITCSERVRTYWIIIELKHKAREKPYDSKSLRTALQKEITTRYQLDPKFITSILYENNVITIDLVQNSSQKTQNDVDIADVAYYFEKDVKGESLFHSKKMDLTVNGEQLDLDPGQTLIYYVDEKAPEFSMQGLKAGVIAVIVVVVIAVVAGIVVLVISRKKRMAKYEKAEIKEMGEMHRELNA

T2: soluble human Ep-CAM (human, UniProt P16422 24-265)
T2 construct: It was truncated by a stop codon at amino acid position 266 and secreted from CHO-K1 cells (pING1954, Clone 51); No signal peptide limits are stated; Multimers were seen on a non-reduced gel; also called sEp-CAM; truncated Ep-CAM
T2 sequence: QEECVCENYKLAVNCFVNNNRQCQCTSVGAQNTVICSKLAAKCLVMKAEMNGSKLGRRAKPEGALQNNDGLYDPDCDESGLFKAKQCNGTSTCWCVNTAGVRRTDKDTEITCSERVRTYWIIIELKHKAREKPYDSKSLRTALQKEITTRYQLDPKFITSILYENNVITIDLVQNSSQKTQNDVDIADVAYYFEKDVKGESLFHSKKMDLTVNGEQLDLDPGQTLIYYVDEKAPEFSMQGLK


Key:
[1] = target: T1, Ep-CAM on the surface of HT-29 human …; assay: competition with 125I-labeled chimeric ING-1 on HT-29 cells
Excerpt: Vectors constructed according to Example 1 encoding human engineered ING-1 light and heavy chain genes, for example, pING1937 (low risk human engineered ING-1) and pING1944 (low plus moderate risk human engineered ING-1) were linearized by XbaI and used to transfect serum-free adapted CHO-K1 followed by selection of G418-resistant transfectants. Protein was purified from shake flask culture supernatants by passage over a protein A column. To evaluate the binding activity of the produced immunoglobulin polypeptides, competition binding assays with the human carcinoma cell line HT-29 were performed. This colorectal carcinoma cell line expresses a molecule known as Ep-CAM on its surface. Ep-CAM is recognized by immunoglobulin polypeptides having the antigen binding specificity of the mouse-human chimeric ING-1 antibody produced by cell line HB9812 as produced by ATCC.
HT-29 cells were grown to confluency (˜2×10⁵ cells/well) in 96 well plates. Mouse-human chimeric ING-1 was labeled with Na¹²⁵I (Iodo-gen®, Pierce). The competition conditions included in a 100 μl assay volume, 0.1 nM labeled mouse-human chimeric ING-1, 2-fold serial dilutions of unlabeled immunoglobulin polypeptides, for example, as produced by cells transfected with pING1937 and pING1944. […] Labeled cells were removed with NaOH and counted. […]

soluble human Ep-CAM = target: T2, soluble human Ep-CAM; assay: ELISA, soluble Ep-CAM coated at 0.25 ug/mL, detection with AP-goat anti-human IgG
[2] = target: T1, Ep-CAM on the surface of HT-29 human …; assay: competition with iodinated low risk ING-1 on HT-29 cells (FIG. 17)
[3] = target: T1, Ep-CAM on the surface of HT-29 human …; assay: competition binding on HT-29 cells (FIG. 16)
Experimental: HT-29 cells were grown to confluency (˜2×10⁵ cells/well) in 96 well plates. Mouse-human chimeric ING-1 was labeled with Na¹²⁵I (Iodo-gen®, Pierce). The competition conditions included in a 100 μl assay volume, 0.1 nM labeled mouse-human chimeric ING-1, 2-fold serial dilutions of unlabeled immunoglobulin polypeptides, for example, as produced by cells transfected with pING1937 and pING1944. The labeled and unlabeled immunoglobulin polypeptides were incubated with HT-29 cells at 4° C. for 5 hours followed by washing. Labeled cells were removed with NaOH and counted. Data analysis was performed using Ligand, [Munson and Redbard, […] 107: 220-239 (1980)].
Human engineered ING-1 modified at the low risk plus moderate risk positions was also evaluated using competition binding assays. No differences in binding between the mouse-human chimeric and the human engineered (low risk) ING-1 was observed.

Binder | binding result [1] | binding result [2] | other results
human engineered (low risk) ING-1 (antibody, human IgG1, kappa, It has 6 low risk changes in VL and 13 in VH; also called human engineered ING-1; ING-1(heMab)) VL: DIVMTQSALSNPVTLGESGSISCRSSKSLLHSNGITYLYWYLQKPGQSPQLLIYQMSNRASGVPDRFSSSGSGTDFTLKISRVEAEDVGVYYCAQNLELPRTFGQGTKLEMKRTVAAPSVFIFPPSDEQLKSGTASVVCLLNNFYPREAKVQWKVDNALQSGNSQESVTEQDSKDSTYSLSSTLTLSKADYEKHKVYACEVTHQGLSSPVTKSFNRGEC VH: not shown | binds |  | binding result (soluble human Ep-CAM): binds
human engineered (low plus moderate risk) ING-1 (antibody, human IgG1, kappa, IgG with human kappa and gamma-1 constant regions, built like pING1937; It has 10 low plus moderate risk changes in VL and 20 in VH; also called product of pING1944) VL: DIVMTQSPLSLPVTPGEPGSISCRSSKSLLHSNGITYLYWYLQKPGQSPQLLIYQMSNRASGVPDRFSSSGSGTDFTLKISRVEAEDVGVYYCAQNLELPRTFGQGTKLEMKRTVAAPSVFIFPPSDEQLKSGTASVVCLLNNFYPREAKVQWKVDNALQSGNSQESVTEQDSKDSTYSLSSTLTLSKADYEKHKVYACEVTHQGLSSPVTKSFNRGEC VH: not shown |  |  | binding result [3]: binds
mouse-human chimeric ING-1 antibody (as produced by cell line HB9812, ATCC) (antibody, human IgG1, kappa, V domains shown, The labelled tracer form was iodinated with Na125I) VH: QIQLVQSGPELKKPGETVKISCKASGYTFTKYGMNWVKQAPGKGLKWMGWINTYTEEPTYGDDFKGRFAFSLETSASTANLQINNLKSEDTATYFCARFGSAVDYWGQGTSVTVSS VL: DIVMTQAAFSNPVTLGTSGSISCRSSKSLLHSNGITYLYWYLQKPGQSPQLLIYQMSNLASGVPDRFSSSGSGTDFTLRISRVEAEDVGVYYCAQNLELPRTFGGGTKLEMKR | binds |  | 

Second part, led by results:

binding result [1] | binding result [2] | Binder | other results
 | binds | modified ING-1 with low risk light chain and low plus moderate risk heavy chain (antibody, human IgG1, kappa, It is an IgG purified on protein A with human kappa and gamma-1 constant regions; also called combination of a low risk light chain with a low plus moderate risk heavy chain) VL: DIVMTQSALSNPVTLGESGSISCRSSKSLLHSNGITYLYWYLQKPGQSPQLLIYQMSNRASGVPDRFSSSGSGTDFTLKISRVEAEDVGVYYCAQNLELPRTFGQGTKLEMKRTVAAPSVFIFPPSDEQLKSGTASVVCLLNNFYPREAKVQWKVDNALQSGNSQESVTEQDSKDSTYSLSSTLTLSKADYEKHKVYACEVTHQGLSSPVTKSFNRGEC VH: not shown | 
 | binds | modified ING-1 with low plus moderate risk light chain and low risk heavy chain (antibody, human IgG1, kappa, It is an IgG purified on protein A with human kappa and gamma-1 constant regions; also called low risk heavy chain with a low plus moderate risk light chain) VL: DIVMTQSPLSLPVTPGEPGSISCRSSKSLLHSNGITYLYWYLQKPGQSPQLLIYQMSNRASGVPDRFSSSGSGTDFTLKISRVEAEDVGVYYCAQNLELPRTFGQGTKLEMKRTVAAPSVFIFPPSDEQLKSGTASVVCLLNNFYPREAKVQWKVDNALQSGNSQESVTEQDSKDSTYSLSSTLTLSKADYEKHKVYACEVTHQGLSSPVTKSFNRGEC VH: not shown | 
